# ± gives the uncertainty stated by the source.
# B1: LIM and senescent cell antigen-like-containing domain protein 2, residues 13 to 71; numbered along this chain, Q7Z4I7 (parent)
# chain: AVCQRCQARFSPAERIVNSNGELYHEHCFVCAQCFRPFPEGLFYEFEGRKYCEHDFQML
# Variants of: B1
# Test: abundance fitness (aPCA) (normalised: wild type 0, dead -1); higher = more abundant; growth selection in yeast, the domain comes from the species named
# Conditions: Homo sapiens
row,Variant,abundance fitness
1,Q33N,0.053 ± 0.14
2,Q33S,-0.135 ± 0.076
3,Q33Y,-0.107 ± 0.14
4,Q33P,-0.58 ± 0.15
5,Q33C,-0.145 ± 0.28
6,Q33M,-0.068 ± 0.082
7,Q33R,-0.077 ± 0.091
8,Q33F,0.285 ± 0.12
9,Q33W,-0.206 ± 0.13
10,Q33K,-0.092 ± 0.13
11,Q33V,0.071 ± 0.069
12,Q33E,0.044 ± 0.1
13,Q33L,-0.195 ± 0.071
14,Q33T,0.012 ± 0.081
15,Q33A,0.024 ± 0.065
16,F46W,0.014 ± 0.085
17,F46E,-0.286 ± 0.095
18,F46D,-0.217 ± 0.13
19,F46V,-0.05 ± 0.067
20,F46M,-0.241 ± 0.1
21,F46A,-0.039 ± 0.082
22,F46L,0.029 ± 0.057
23,F46N,-0.202 ± 0.18
24,F46K,-0.173 ± 0.11

row,Variant,abundance fitness
1,F46C,-0.127 ± 0.1
2,F46G,-0.465 ± 0.1
3,F46P,-0.902 ± 0.17
4,F46H,0.114 ± 0.12
5,F46I,-0.446 ± 0.14
6,F46Q,-0.272 ± 0.097
7,F46R,-0.271 ± 0.06
8,G41H,-0.338 ± 0.079
9,G41Y,-0.532 ± 0.07
10,G41C,-0.205 ± 0.055
11,G41K,-0.305 ± 0.17
12,G41P,-0.518 ± 0.13
13,G41I,-0.733 ± 0.13
14,G41V,-0.613 ± 0.075
15,G41Q,0.096 ± 0.14
16,G41A,-0.238 ± 0.066
17,G41T,-0.268 ± 0.08
18,G41M,-0.271 ± 0.15
19,G41F,-0.481 ± 0.078
20,G41R,-0.084 ± 0.058
21,G41L,-0.394 ± 0.068
22,G41W,-0.253 ± 0.28
23,G41E,-0.612 ± 0.28
24,G41N,0.021 ± 0.073

row,Variant,abundance fitness
1,G41S,-0.228 ± 0.054
2,E45L,-0.039 ± 0.37
3,E45V,-0.061 ± 0.35
4,E40V,-0.266 ± 0.052
5,E40Q,-0.105 ± 0.06
6,E40Y,-0.212 ± 0.079
7,E40L,-0.068 ± 0.041
8,E40G,-0.158 ± 0.054
9,E40W,-0.31 ± 0.064
10,E40H,0.023 ± 0.095
11,E40T,-0.15 ± 0.055
12,E40N,-0.236 ± 0.11
13,E40K,-0.039 ± 0.057
14,E40A,-0.098 ± 0.054
15,E40D,-0.018 ± 0.1
16,E40I,-0.752 ± 0.15
17,F43R,-0.37 ± 0.07
18,F43D,-0.69 ± 0.2
19,F43L,-0.161 ± 0.059
20,F43Y,0.059 ± 0.23
21,F43V,-0.132 ± 0.06
22,F43P,-0.042 ± 0.069
23,F43H,-0.204 ± 0.15
24,F43K,-0.365 ± 0.084

row,Variant,abundance fitness
1,F43M,-0.206 ± 0.086
2,F43T,-0.014 ± 0.065
3,F43S,-0.103 ± 0.074
4,F43A,-0.143 ± 0.064
5,F43N,-0.387 ± 0.25
6,F43I,-0.263 ± 0.17
7,F43Q,0.103 ± 0.084
8,F43E,-0.522 ± 0.087
9,F43C,-0.223 ± 0.13
10,A32K,-0.274 ± 0.065
11,A32G,-0.073 ± 0.053
12,A32H,0.118 ± 0.083
13,A32Q,0.083 ± 0.064
14,A32R,-0.26 ± 0.055
15,A32V,-0.001 ± 0.042
16,A32S,-0.172 ± 0.058
17,A32I,-0.117 ± 0.072
18,A32W,-0.149 ± 0.064
19,A32M,-0.099 ± 0.062
20,A32F,-0.258 ± 0.08
21,A32C,-0.354 ± 0.24
22,A32L,-0.322 ± 0.045
23,A32E,0.014 ± 0.046
24,A32D,-0.026 ± 0.068

row,Variant,abundance fitness
1,A32Y,0.147 ± 0.079
2,C52A,-1 ± 0.12
3,C52E,-0.719 ± 0.11
4,C52D,-0.622 ± 0.16
5,C52F,-0.882 ± 0.38
6,F35Y,0.008 ± 0.095
7,F35T,0.072 ± 0.073
8,F35W,-0.076 ± 0.1
9,F35H,0.224 ± 0.095
10,F35S,0.219 ± 0.06
11,F35M,-0.027 ± 0.08
12,F35P,-0.739 ± 0.13
13,F35E,0.144 ± 0.086
14,F35I,0.01 ± 0.083
15,F35G,0.195 ± 0.081
16,F35L,0.031 ± 0.05
17,F35Q,-0.014 ± 0.11
18,F35D,0.153 ± 0.1
19,F35A,0.077 ± 0.1
20,F35K,0.204 ± 0.086
21,F35V,0.112 ± 0.055
22,F35N,0.147 ± 0.091
23,F35C,0.096 ± 0.073
24,E47H,0.022 ± 0.11

row,Variant,abundance fitness
1,E47K,-0.274 ± 0.07
2,E47Y,-0.453 ± 0.13
3,E47M,-0.222 ± 0.081
4,E47D,-0.083 ± 0.09
5,E47R,-0.154 ± 0.044
6,E47A,-0.129 ± 0.06
7,E47P,-0.773 ± 0.1
8,E47W,-0.49 ± 0.072
9,E47V,-0.138 ± 0.057
10,E47L,-0.243 ± 0.062
11,E47S,-0.364 ± 0.07
12,E47Q,-0.204 ± 0.078
13,E47F,-0.585 ± 0.15
14,E47C,-0.247 ± 0.1
15,E47G,-0.062 ± 0.048
16,E47T,-0.434 ± 0.073
17,E47N,-0.335 ± 0.1
18,L42Q,-0.092 ± 0.11
19,L42P,-0.357 ± 0.11
20,L42F,-0.301 ± 0.13
21,L42W,-0.302 ± 0.1
22,L42A,0.02 ± 0.087
23,L42N,-0.012 ± 0.11
24,L42D,-0.023 ± 0.11

row,Variant,abundance fitness
1,L42E,0.083 ± 0.1
2,L42G,-0.108 ± 0.066
3,L42S,-0.064 ± 0.07
4,L42R,0.006 ± 0.057
5,L42V,-0.026 ± 0.075
6,L42H,-0.198 ± 0.17
7,L42I,0.112 ± 0.11
8,L42C,-0.062 ± 0.088
9,L42M,0.045 ± 0.087
10,L42K,0.047 ± 0.096
11,L42T,0.07 ± 0.083
12,R49V,-0.123 ± 0.077
13,R49C,-0.011 ± 0.13
14,R49K,0.029 ± 0.11
15,R49T,-0.066 ± 0.087
16,R49L,-0.169 ± 0.068
17,R49A,-0.057 ± 0.099
18,R49G,-0.257 ± 0.063
19,R49Y,-0.328 ± 0.18
20,R49M,-0.102 ± 0.095
21,R49F,-0.245 ± 0.19
22,R49E,-0.205 ± 0.12
23,R49D,-0.413 ± 0.26
